From patent CN112646029A

Target: T1, mBDNF (成熟脑源性神经营养因子, mature brain-derived neurotrophic factor) (Helarctos malayanus (Malayan sun bear) (Ursus malayanus)) (UniProt O18753)
T1 sequence: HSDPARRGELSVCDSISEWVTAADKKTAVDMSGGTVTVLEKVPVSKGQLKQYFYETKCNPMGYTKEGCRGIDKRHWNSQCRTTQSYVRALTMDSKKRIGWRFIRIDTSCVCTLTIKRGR
Assay: ELISA; antigen coated on the plate, purified antibody added, secondary antibody, TMB, OD450

B1: 抗mBDNF抗体 (anti-mature brain-derived neurotrophic factor antibody) (antibody, V domains shown)
VH: EVKLEESGGGLVQPGGSMKLSCVASGFTFNNYWMNWVRQSPGKGLEWVAQIRLDSDNYATHYAESVIGRFTISSDDSKSSVYLQMNNLRAEDTGIYYCTAFDYAMDYWGQGTSVTVSS
VL: DIVMTQSHKFMSTSVGDRVSITCKASQDVGSAVAWYQQKPGQSPKLLIYWASTRHTGVPNRFTGSGSGTDFTLTISNVHSEDLADYFCQQYSSYPLTFGSRTKLEIK
- lowest antigen concentration at which the antigen was detected: 1.95 ng/mL
